Measurements as given in US20090318350A1, “PAN-HER ANTAGONISTS AND METHODS OF USE” (priority 2006, published 2009).
Like-named read-outs stand apart in the source and are kept apart here.

What was measured:
EGFR = target: T1, EGFR (Homo sapiens, UniProt P00533); assay: Phage ELISA whole-cell binding, A431 cells; conditions: for Calculated binding (EC50): A431 whole cell suspension, Abs450, Table 10; for Calculated binding (EC50) / ligand binding, from the binding curves: phage-displayed ligand; for Calculated binding (EC50) in A431 cells / binding properties relative to WVS and WVS-R41DL47G: phage fusion; for ligand binding, from the binding curves / binding properties relative to WVS and WVS-R41DL47G: A431 cells
T1 construct: host or cells: A431 human epidermoid carcinoma cells, whole-cell suspension
Protocol: A431 cells for EGFR binding or T47D cells for HER3 binding were grown as monolayers in tissue culture flasks in media containing fetal bovine serum. Cells were trypsinized, neutralized with growth medium, washed twice with DPBS and resuspended in ice-cold PBS-Glu-T. 105 cells were transferred to 96 well plates and incubated on ice for 1 hour in the presence of varied concentrations of phage. Cells were centrifuged and washed 5× with PBS-T then incubated for one hour at room temperature with anti-M13 pVIII coat protein antibody conjugated with horseradish peroxidase (HRP). Cells again centrifuged and washed 5× with PGS-T. Color developed with TMP followed by H2SO4. Cells pelleted and supernatant transferred to optically transparent plate for measurement of absorbance at 450 nm. […]
The human epidermoid carcinoma line, A431, were obtained from ATCC. Stock cultures of A-431 were propagated in DMEM medium containing 10% fetal bovine serum. A431 cells were used to evaluate EGFR receptor binding.
(§1) The phage fusion ligand variants were then evaluated for binding using the assay described herein in both A431 cells (to investigate EGFR binding) and T47D cells (to investigate HER3 receptor binding) and EC50s were calculated.

HER5 cells = conditions: cited from earlier work; for stimulation of cell proliferation in EGFR-dependent HER5 cells: isolated ligand variants, previously demonstrated
Her-3 [1] = target: T2, Her-3 (Homo sapiens, UniProt P21860); assay: Phage ELISA whole-cell binding, T47D cells; design: host or cells: T47D human ductal carcinoma cells, whole-cell suspension; conditions: for Calculated binding (EC50) in T47D cells / binding properties relative to WVS and WVS-R41DL47G: phage fusion
T2 sequence (P21860 20-1342): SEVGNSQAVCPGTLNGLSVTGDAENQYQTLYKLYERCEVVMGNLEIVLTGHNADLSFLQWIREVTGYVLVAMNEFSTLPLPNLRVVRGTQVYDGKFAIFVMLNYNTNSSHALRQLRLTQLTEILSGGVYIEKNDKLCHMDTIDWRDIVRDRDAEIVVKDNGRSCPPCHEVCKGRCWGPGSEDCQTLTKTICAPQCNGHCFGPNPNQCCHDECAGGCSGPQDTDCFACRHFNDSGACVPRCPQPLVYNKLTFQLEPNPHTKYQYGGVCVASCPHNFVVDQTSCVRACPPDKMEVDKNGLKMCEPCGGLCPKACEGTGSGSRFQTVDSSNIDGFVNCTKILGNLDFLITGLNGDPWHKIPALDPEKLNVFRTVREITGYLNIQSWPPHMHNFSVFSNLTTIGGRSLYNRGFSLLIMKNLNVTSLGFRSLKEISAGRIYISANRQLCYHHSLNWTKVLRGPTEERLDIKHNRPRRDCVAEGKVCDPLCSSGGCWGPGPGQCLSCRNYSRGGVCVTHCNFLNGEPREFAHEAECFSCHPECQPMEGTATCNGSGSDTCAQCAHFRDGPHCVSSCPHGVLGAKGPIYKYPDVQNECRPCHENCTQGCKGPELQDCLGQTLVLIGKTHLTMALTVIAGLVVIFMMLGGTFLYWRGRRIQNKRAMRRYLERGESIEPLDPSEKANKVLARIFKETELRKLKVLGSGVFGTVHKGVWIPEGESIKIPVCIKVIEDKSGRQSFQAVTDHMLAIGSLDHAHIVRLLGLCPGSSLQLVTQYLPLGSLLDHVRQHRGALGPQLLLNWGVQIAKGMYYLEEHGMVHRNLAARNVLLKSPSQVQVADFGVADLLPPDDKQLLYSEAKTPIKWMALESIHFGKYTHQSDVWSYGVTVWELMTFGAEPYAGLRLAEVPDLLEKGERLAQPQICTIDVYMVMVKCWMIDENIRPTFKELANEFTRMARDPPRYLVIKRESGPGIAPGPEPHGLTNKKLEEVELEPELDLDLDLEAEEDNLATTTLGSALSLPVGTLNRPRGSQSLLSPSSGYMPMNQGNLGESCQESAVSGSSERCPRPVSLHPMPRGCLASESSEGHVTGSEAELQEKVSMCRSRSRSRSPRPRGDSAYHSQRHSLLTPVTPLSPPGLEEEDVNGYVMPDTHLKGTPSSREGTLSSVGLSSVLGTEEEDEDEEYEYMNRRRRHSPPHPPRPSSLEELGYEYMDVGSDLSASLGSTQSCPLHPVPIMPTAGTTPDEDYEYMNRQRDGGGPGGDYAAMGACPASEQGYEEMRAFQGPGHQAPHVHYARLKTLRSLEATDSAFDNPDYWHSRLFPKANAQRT
Protocol: (§2) A431 cells for EGFR binding or T47D cells for HER3 binding were grown as monolayers in tissue culture flasks in media containing fetal bovine serum. Cells were trypsinized, neutralized with growth medium, washed twice with DPBS and resuspended in ice-cold PBS-Glu-T. 105 cells were transferred to 96 well plates and incubated on ice for 1 hour in the presence of varied concentrations of phage. Cells were centrifuged and washed 5× with PBS-T then incubated for one hour at room temperature with anti-M13 pVIII coat protein antibody conjugated with horseradish peroxidase (HRP). Cells again centrifuged and washed 5× with PGS-T. Color developed with TMP followed by H2SO4. Cells pelleted and supernatant transferred to optically transparent plate for measurement of absorbance at 450 nm.
(§3) Theoretical estimates were also performed. “N.D.” indicates not determined. […]
(§4) Human ductal carcinoma cells were obtained from ATCC. They were maintained in RPMI 1640 medium with 2 mM L-glutamine adjusted to contain 1.5 g/L sodium bicarbonate, 4.5 g/L glucose, 10 mM HEPES, and 1.0 mM sodium pyruvate and supplemented with 0.2 Units/ml bovine insulin, 90%; fetal bovine serum, 10%. T47-D cells were used to evaluate HER3 receptor binding.
as §1

MCF-7 cells = conditions: cited from earlier work
Her-3 [2] = target: T2, Her-3; conditions: particularly for Her-3; cited from earlier work
HER3 receptor = assay: Phage ELISA whole-cell binding, T47D cells; design: species or system human; conditions: A431 (EGFR) versus T47D (HER3) binding, phage fusion
Protocol: as §2, §3
as §4, with “T47-D cells were used to evaluate HER3 receptor binding.” left out
as §1

[3] = T47D whole cell suspension, phage-displayed ligand, Abs450
[4] = isolated ligand variants, previously demonstrated

Substance	Calculated binding (EC50) (EGFR)	stimulation of cell proliferation in EGFR-dependent HER5 cells (HER5 cells)	Estimated binding (EC50) (Her-3 [1]; [3])	Calculated binding (EC50) in A431 cells (EGFR; Table 14, first half loop)	Calculated binding (EC50) in A431 cells (EGFR; Table 15, second half loop)	Calculated binding (EC50) in T47D cells (Her-3 [1]; Table 14, first half loop)	Calculated binding (EC50) in T47D cells (Her-3 [1]; Table 15, second half loop)	further results
wvs-L47G: WVS background, L at position 47 replaced by G; SEQ ID NO 7 (NWVSECPLSHDGYCLHDGVCMYIEALDKYACNCVVGYIGERCQYRDGKWWELR; Ligand Variant)	6.6 × 10^10 phage titer/mL	–	–	–	–	–	–	–
T1E: EGF/TGFα chimera, amino terminal residues NSDSE replaced with VVSHFND from TGF-α; SEQ ID NO 4 (VVSHFNDCPLSHDGYCLHDGVCMYIEALDKYACNCVVGYIGERCQYRDLKWWELR; Ligand Variant) [reference compound]	–	capable of stimulating cell proliferation	1 × 10^10 phage titer/mL	–	–	–	–	–
WVS: EGF variant, amino acids 2 and 3 replaced with W and V, N-terminus NWVSE; SEQ ID NO 3 (NWVSECPLSHDGYCLHDGVCMYIEALDKYACNCVVGYIGERCQYRDLKWWELR; Ligand Variant) [reference compound]	6.6 × 10^8 phage titer/mL	capable of stimulating cell proliferation	9 × 10^8 phage titer/mL	1.9 × 10^9 phage titer/mL	1.4 × 10^9 phage titer/mL	7.5 × 10^9 phage titer/mL	7.6 × 10^9 phage titer/mL	stimulation of MCF-7 cells (MCF-7 cells; [4]): stimulated most effectively; binding affinity (Her-3 [2]): high binding affinity; Calculated binding (EC50) (Her-3 [1]; T47D whole cell suspension, phage-displayed ligand, Abs450, Table 9): 9.8 × 10^9 phage titer/mL
wvs-R41DL47G: WVS background, R at position 41 replaced by D, L at position 47 replaced by G; SEQ ID NO 5 (NWVSECPLSHDGYCLHDGVCMYIEALDKYACNCVVGYIGEDCQYRDGKWWELR; Ligand Variant)	4.8 × 10^12 phage titer/mL	–	–	2.8 × 10^10 phage titer/mL	4.0 × 10^10 phage titer/mL	1.1 × 10^12 phage titer/mL	2.6 × 10^11 phage titer/mL	ligand binding, from the binding curves (EGFR): greatly attenuated; ligand binding, from the binding curves (Her-3 [1]; T47D cells, phage-displayed ligand): greatly attenuated
D4-2: WVS background, B-loop YRVKTLDKYA (first half YRVKT); SEQ ID 43 (Ligand Variant)	–	–	–	3.6 × 10^10 phage titer/mL	–	8.6 × 10^10 phage titer/mL	–	receptor binding selectivity (HER3 receptor): bind only the HER3 receptor
BiR: heregulin/EGF chimera, amino terminal residues NSDSE replaced with heregulin SHLVK; SEQ ID NO 2 (SHLVKCPLSHDGYCLHDGVCMYIEALDKYACNCVVGYIGERCQYRDLKWWELR; Ligand Variant)	–	capable of stimulating cell proliferation	–	–	–	–	–	stimulation of HER5 cells (HER5 cells; stated as known): can be stimulated; stimulation of MCF-7 cells (MCF-7 cells; [4]): very weakly; stimulation of MCF-7 cells (MCF-7 cells; stated as known): can be stimulated
E8: WVS background, B-loop MYIEATKYRG (second half TKYRG); SEQ ID 44 (Ligand Variant)	–	–	–	–	5.2 × 10^9 phage titer/mL	–	3.1 × 10^10 phage titer/mL	binding properties relative to WVS and WVS-R41DL47G (EGFR): intermediate binding properties; binding properties relative to WVS and WVS-R41DL47G (Her-3 [1]; T47D cells): intermediate binding properties
D4: WVS background, B-loop MYIEAYRVKT (second half YRVKT); SEQ ID 42 (Ligand Variant)	–	–	–	–	3.9 × 10^9 phage titer/mL	–	2.9 × 10^10 phage titer/mL	binding properties relative to WVS and WVS-R41DL47G (EGFR): intermediate binding properties; binding properties relative to WVS and WVS-R41DL47G (Her-3 [1]; T47D cells): intermediate binding properties
wvs-R41D: WVS background, R at position 41 replaced by D; SEQ ID NO 6 (NWVSECPLSHDGYCLHDGVCMYIEALDKYACNCVVGYIGEDCQYRDLKWWELR; Ligand Variant)	5.8 × 10^11 phage titer/mL	–	>1 × 10^12 phage titer/mL	–	–	–	–	ligand binding, from the binding curves (EGFR): greatly attenuated
